Assay results: patent publication US9532956B2, “PH sensitive biodegradable polymeric particles for drug delivery” (Massachusetts Institute of Technology, priority 2009, dated 2017)

Tested on: Red blood cells (RBCs)
Conditions: pH 7.4
Experimental: The red blood cells (RBCs) were separated from the whole blood or anticoagulant solution by centrifuging the whole blood at 800 rcf for 15 min. The supernatant was discarded and the RBCs were washed thrice with phosphate buffered saline (PBS). The stock of RBCs was prepared by mixing three volumes of the centrifuged RBCs with 11 parts of the phosphate buffered saline (PBS) with pH adjusted to 7.4, 6.5, or 5.4, and 100 μL of this stock was used for 1 ml of the sample. RBCs were mixed with Triton X-100 (1%, w/v) (positive control); with phosphate buffered saline (PBS) with pH adjusted to 7.4, 6.5, or 5.4 (negative control); and respective concentrations of amines, PLH and protamine at different pH (7.4, 6.5, or 5.4). Samples were incubated at 37° C. for 24 h on a tube shaker. The samples were centrifuged at 800 rcf for 15 min to separate intact RBCs. The supernatant was collected and kept for 30 min at room temperature to oxidize hemoglobin (Hb) and then the absorbance of Oxy-Hb was measured spectrophotometrically at 540 nm. The relative hemolysis efficiency was calculated as the percentage of released hemoglobin by the samples to that by Triton X-100. The percent hemolysis was calculated using the equation of a straight line, y=mx+c, where % hemolysis (x)=[optical density (y)−negative control optical density (c)]/[(positive control optical density−negative control optical density)/100] […]

| Compound | % hemolysis versus pH |
| --- | --- |
| protamine | more hemolytic properties at physiological pH 7.4 |
| N[C@@H](Cc1c[nH]cn1)C(=O)N[C@@H](Cc1c[nH]cn1)C(=O)N[C@@H](Cc1c[nH]cn1)C(=O)N[C@@H](Cc1c[nH]cn1)C(=O)N[C@@H](Cc1c[nH]cn1)C(=O)N[C@@H](Cc1c[nH]cn1)C(=O)O [PLH, poly-L-histidine (PLH, 6-mer)] | maximum hemolytic properties at endosomal pH 5.4 |
